The DeepSol protein solubility set

Assay: soluble on expression in E. coli; label from the status in PepcDB or PDB records

| Sequence | soluble on expression in E. coli |
| --- | --- |
| MDKEKVLDKIKKCLALGRSVNEHEAAQALRQAQALMEKYKVNAEDIALSKVSEQKADRKMAFKLAGWQWGVANMIADIFGCKSYQRGKTMMFYGIGNRAETSAYAFDVVYRQISADRRKFLKTCRAGKPSHRTYLADRFCGGWIASAWETVKKFEMSDEEKAIMDGYKKKEYPDMAEARTRDAKSSILQGSKMEYEALTRGMESGKQVKLHYAVNGTGFVKQIGGQT | not soluble |
| SPSKVQELSVYEINELDRHSPKILKNAFSLMFGLGDLVPFTNKLYTGDLKKRVGITAGLCVVIEHVPEKKGERFEATYSFYFGDYGHLSVQGPYLTYEDSFLAITGGAGIFEGAYGQVKLQQLVYPTKLFYTFYLKGLANDLPLELTGTPVPPSKDIEPAPEAKALEPSGVISNYTN | not soluble |
| MHHHHHHGSTKTNSEILEQLKQASDGLLFMSESEYPFEVFLWEGSAPPVTHEIVLQQTGHGQDAPFKVVDIDSFFSRATTPQDWYEDEENAVVAKFQKLLEVIKSNLKNPQVYRLGEVELDVYVIGETPAGNLAGISTKVVET | soluble |
| MPVTLSFGNHQNYTLNESRLAHLLSADKEKAIHMGGWDKVQDHFRAEKKDHALEVLHSIIHGQGRGEPGEMEVNVEDINKIYAFKRLQHLACPAHQDLFTIKMDASQTQFLLMVGDTVISQSNIKDILNISDDAVIESMSREERQLFLQICEVIGSKMTWHPELLQESISTLRKEVTGNAQIKTAVYEMMRPAEAPDHPLVEWQDSLTADEKSMLACINAGNFEPTTQFCKIGYQEVQGEVAFSMMHPCISYLLHSYSPFSEFKPTNSGFLKKLNQDYNDYHAKKMFIDVILEKLYLTHERSLHIGKDGCSRNILLT | not soluble |
| MGSDKIHHHHHHMFKIDRLRFGTAGIPISTPKPSTIAGIERVRELGLDAMELEFVRGINIKPELAKKIKYVAEKNDIVLTAHAPYYINLNAKEKEKVEASKRRIIQSAERLYEAGGWSVVFHAGYYLKQPKESVYQKILSALKEIQKELMDKGIKVWLRPELTGKPTQFGDLKELVKLSQELELVLPAIDFAHAHARNKGKCNTEEEWREMLALIENELGREALDNMHIHISGIEYGEKGEKRHLNLEESDLKWEDLLKVLKEFRVKGVIISESPNIEGDAILMKKKWEELKI | not soluble |
| MSLLTKSAENKRNRKDDSMRPGQQLTLSIDHQTDFGYFLTDGEDTILLHNSEMTEDIEDRDEVEVFIYVDQQERLAATMKIPIISADEYGWVEVVDKVEDMGVFVDVGLSKDALVATEHLPPYEDVWPQKGDKLYCMLKVTNRGRMFAKPAPEDIISELFTDASEDLMNKELTGTVYRLIASGSFVITDDGIRCFIHPSERKEEPRLGSRVTGRVIQVKEDGSVNLSLLPRKQDAMSVDAECILTYMRMRNGAMPYSDKSQPDDIRERFNMSKAAFKRALGHLMKNGKVYQENGWTYEKKEGGSHHHHHH | soluble |
| MGSDKIHHHHHHMKAPEGIACGKRQLVVSDTGGGRLLSYSIENGSVRGGTEIKAEQVPYPTKVQLTSKGEILVIDGKLRRIAHFSPEGSFAGYLDLKGVPAPATIAPRGIRVDDKDNIHILDIFGARVIVTDAAGTFQSQMPFPEGYRFISDLAVSASGTTLLLDSVASRVYAAARGETAFKPLTDGMKEYLQFPTSIATDKQGKIFILDQTGNAVVTLGQDGSFQGRQLNIGWKNSFLHYPSQLCISEENDIDVVIADRNNNRIQVFRVVR | not soluble |
| EQGREPSWGFTEKSRTRDIPETLVPLITVTPSTELYRITGWGALEGHKVFYHETYINPEVAPGFIEQLENHSFSAVWEKCYQKETVVKKLIFKPVRMPGDISKYLGGSAGMPAILIEKHRADQQGNIVQIDIEYWRFEAVDLIINL | not soluble |
| MTDNSNIRVVVGMSGGVDSSVTALLLKEQGYDVIGVFMKNWDDTDEFGVCTATEDYKDVAAVADQIGIPYYSVNFEKEYWDRVFEYFLAEYRAGRTPNPDVMCNKEIKFKAFLDYAMTLGADYVATGHYAQVTRDENGIVHMLRGADNNKDQTYFLSQLSQEQLQKTLFPLGHLQKPEVRRIAEEAGLATAKKKDSTGICFIGEKNFKDFLGQYLPAQPGRMMTVDGRDMGEHAGLMYYTIGQRGGLGIGGQHGGDNKPWFVVGKDLSKNILYVGQGFYHDSLMSTSLTASEIHFTRDMPNEFKLECTAKFRYRQPDSKVTVYVKGNQARVVFDDLQRAITPGQAVVFYNEQECLGGGMIDQAYRDDKICQYIMAGDPLEHHHHHH | not soluble |
| MGSDKIHHHHHHMKVNLDYLGRLFTENELTEEERQLAEKLPAMRKEKGKLFCQRCNSTILEEWYLPIGAYYCRECLLMKRVRSDQTLYYFPQEDFPKQDVLKWRGQLTPFQEKVSEGLLQVVDKQKPTLVHAVTGAGKTEMIYQVVAKVINAGGAVCLASPRIDVCLELYKRLQQDFSCGIALLHGESEPYFRTPLVVATTHQLLKFYQAFDLLIVDEVDAFPYVDNPMLYHAVKNSVKENGLRIFLTATSTNELDKKVRLGELKRLNLPRRFHGNPLIIPKPIWLSDFNRYLDKNRLSPKLKSYIEKQRKTAYPLLIFASEIKKGEQLAEILQEQFPNEKIGFVSSVTEDRLEQVQAFRDGELTILISTTILERGVTFPCVDVFVVEANHRLFTKSSLIQIGGRVGRSMDRPTGDLLFFHDGLNASIKKAIKEIQMMNKEAGL | not soluble |
| MGSDKIHHHHHHMSVTNVTREELWAKQHLSCKNMDYAVWERDKSMLQKLSRINGGCSFVVDVYKGCYAYASTGFVDWLGYDRHKIETLEKQGDYLESRIHPHDRSQLEDLQVRLGKFIYNQPFEHRNDYCNVYSFRILNARGNYVRVTSRHQVLEQSHDGKAWLIIGNMSMAPGQKESEQVECTVLNLRNGEMFSPGVVIMNPAFGLTGREMEILRLIQRGFLSKEIADKLCISIHTVHIHRQNLLRKLGVQNSLEAIRLGQESGLLS | not soluble |
| MKYIVLLGDGMSDEPMQELGGKTPLQAARTPHMDAMARRGRIGLARTVPEGYPPGSDVANLSVFGYDPRACYTGRSPLEAASMGVELGSADVAFRVNLVNLAPTRGTLVMNDYSAGHISTAEGRELIEAIQGVMGTDEFQFYPGVGYRHLMVWRNGKCGMTVVPPHDISGQSILEHLPKGEGAERLIELMNSSQLVLNNHPQYRRRLEEGKVPANSIWLWGHGKAPRMASFHEKFGLTGAVISAVDLVRGIGVCAGLDVIKVEGATGYIDTNYEGKVTAALEALEAHDYVYLHVEAPDEAGHGGNLEHKLKAIEDFDARVVGPIMAGMEKFGSYRILCTPDHPTPLRLKTHTDAPVPFVLFSGETSENAGVAGYDEESARSAGLVVEDGFRLMEMMLDRLEHHHHHH | soluble |
| MGSDKIHHHHHHMTLATMKLQILSDLHIDSYVRQSHPIGHIPKTDADIVLVAGDTANSDIGMPWLQEQAARLQVPLITIAGNHEYFNEDVLHFDKKLATWDNYDSESKQGVQFLQCQYIDIGEVRILGCTLWTDYQYQANEDTMVAALRFMRDYKQIYAGSELFSPEVSMQIHAKQRQWLKQALITAKALGKKTVVMSHHSISPLSVSEKYANLPSNAAFVSDLSQWMYEDWAPALWVHGHTHEAFDYHIHKTRVIVNPRAYPNEVSSTALAFAWDRVIDIG | not soluble |
| MQASDRFNINSQLEHLQAKYVGTGHADLSRFEWAVNIQRDSYASYIGHYPMLSYFAIAENESIGRERYNFMQKMLLPCGLPPEREEE | soluble |
| MKKIAIFAKVHDPRCQGVASELIAWLEARGLIPLVEAHLARHLGGRQGIVPEDIPVLADMAVVLGGDGTLISAARLIGSRQIPILGVNLGSLGFLTEITLDELYPVLESCLSGDFQVTERMMLTVSVERNGEEICSHRVLNDVVINKGALARIIDMETEVSGIRLTTYKADGLIISTPTGSTGYSLSANGPIVHPSLECITITPICPHTLTNRPIVLESSSGVTVWLRSKDEDVYLTLDGQVGMELKCGDAVHVRRAAHRTRLVMSRSRNYFEVLRTKLKWGERAAALEHHHHHH | soluble |
| MGSDKIHHHHHHMIGKIEPLGTSTGKILYNSHCQNILDLSVAETMEIFKSSGVILFRDFGVTPKQMKDFSEQFSGKHIIDFTKVSIDSDKYVNFVDGGMDGLIPHCENSCFPFRPDVIWFCCTVPAEQEGETLFWDGIRVWEELSQESKQLFLSKQLKFSYKNVPVDILKGIIGSNANTIDDIKQRLDSVDGVSYQFNDDKTVSVEYTCSSVVNNKYNHQNAFANHFWVYQKRTEEAIFDDGSRASDEVADEIERIFDKLTEKIPWKAGDLVMMDNSRFLHGRGAFTDNRRQVFTTLSNLKF | not soluble |
| MAYWLVKSEPSVWSWDQQVAKGAAGEAWTGVRNHSAKLHMVAMRRGDRAFYYHSNEGKEIVGIAEIIREAYPDPTDASGKFVCVDIKADKPLKTPVTLAAVKAEPRLADMALMKYSRLSVQPVTAEEWKLVCKMGGLLEHHHHHH | not soluble |
| MQRFVFGGKLWKFNETFGCYDDYPHVAPFLAVEHFASFPVHPPTFIFSNAAVSNILSMEEIKSVLIRLDELISSNNLHNHPCLISQAGAQATMRLASKDQLRSDWNTSVEIPFCLYVTQNGVCPRQFDYEDLHKQSQWVALFEEVILPLDKMQGSKLSKIAPHQHSSVVKNAIMKSKREKKTSCKKHSKSISGIDSSSSGCNSL | not soluble |
| MNYRELMQKKNVRPYVLMARFGLEKENQRSTREGLLATTEHPTVFGNRSYHPYIQTDFSETQLELITPVANSGTEMLRFLDAIHDVARRSIPEDEMLWPLSMPPQLPTKDEEIKIAKLDQYDAVLYRRYLAKEYGKRKQMVSGIHFNFEYDQALIQQLYDEQSEVTDCKQFKTKVYMKVARNFLRYRWLITYLFGASPVSEDRYFRVYDDQPQEPVRSIRNSTYGYRNHDNVKVSYASLERYLEDIHRMVENGLLSEEKEFYAPVRLRGGKQMSDLPKTGIRYIELRNLDLNPFSRLGIVEDTVDFLHYFMLYLLWTDEKEEADEWVKTGDIFNEQVALGHPHETIKLIAEGDRIFSEMIDMLDALGIRKGKEVVGKYYQQLRNPQDTVSGKMWTIIQENSNSELGNIFGNQYQSMAFERPYQLAGFREMELSTQIFLFDAIQKGLEIEILDEQEQFLKLQHGEHIEYVKNANMTSKDNYVVPLIMENKTVTKKILSAAGFHVPGGEEFSSFIEAQEAHLRYANKAFVVKPKSTNYGLGITIFKEGASLEDFTEALRIAFKEDTAVLIEEFLPGTEYRFFVLDNDVKAIMLRVPANVTGDGKHTVEELVAAKNSDPLRGTNHRAPLELIQLNDLEKLMLKEQGLTIYSVPEKEQIVYLRENSNVSTGGDSIDMTDVIDDSYKQIAIEAVAALGAKICGIDLIIPDKDVKGTRDSLTYGIIEANFNPAMHMHVYPYAGQGRRLTMDVLKLLYPEVVQ | not soluble |
| MGSDKIHHHHHHMRASVSPDIFPPRGHEAKRLSIVDAAAGVFCREGFAGANIDLIAAEAGVSRQTVYNHHGDKEKLFMAVVRDLTDRCNVGIFATIATFPDQPGDLEADLIGFAVRLNQNCICNRDGKFLRKLIQTEGERYPELFAEWREQGPGTTLPAIAARFARLAYGGYLTIDDPDVAARQFFGLVNAELQTTFMLGGTPREDEVVRSATNGVRTFLRAFGKRPAPGSVKKHIALANA | not soluble |
| MKHFRKELWFETRQRRQFINITPTVRECLRESGIREGLLLCNAMHITASVFINDDESGLHHDFEVWLEGLAPEKPYDRYRHNGYEDNADAHLKRTVMGREVVVAVTAGELDLGPWEQIFYGEFDGKRRKRVLIKIIGELEHHHHHH | not soluble |
